Test results reported in patent publication US20180264072A1 (PARIS SCIENCES ET LETTRES QUARTER LATIN, published 2018).

B1: IpaA 483-633 (A483) (other)
chain: GDTYLTRETIFEASKKVTNSLSNLISLIGTKSGTQERELQEKSKDITKSTTEHRINNKLKVTDANIRNYVTETNADTIDKNHAIYEKAKEVSSALSKVLSKIDDTSAELLTDDISDLKNNNDITAENNNIYKAAKDVTTSLSKVLKNINKD
B2: vinculin D1 domain (HVD1) (other)
chain: MPVFHTRTIESILEPVAQQISHLVIMHEEGEVDGKAIPDLTAPVAAVQAAVSNLVRVGKETVQTTEDQILKRDMPPAFIKVENACTKLVQAAQMLQSDPYSVPARDYLIDGSRGILSGTSDLLLTFDEAEVRKIIRVCKGILEYLTVAEVVETMEDLVTYTKNLGPGMTKMAKMIDERQQELTHQEHRVMLVNSMNTVKELLPVLISAMKIFVTTKNSKNQGIEEALKNRNFTVEKMSAEINEIIRVLQLTSWDEDAW
notes: also called D1 domain of vinculin
B3: full-length human vinculin (HV) (other)
chain: MPVFHTRTIESILEPVAQQISHLVIMHEEGEVDGKAIPDLTAPVAAVQAAVSNLVRVGKETVQTTEDQILKRDMPPAFIKVENACTKLVQAAQMLQSDPYSVPARDYLIDGSRGILSGTSDLLLTFDEAEVRKIIRVCKGILEYLTVAEVVETMEDLVTYTKNLGPGMTKMAKMIDERQQELTHQEHRVMLVNSMNTVKELLPVLISAMKIFVTTKNSKNQGIEEALKNRNFTVEKMSAEINEIIRVLQLTSWDEDAWASKDTEAMKRALASIDSKLNQAKGWLRDPSASPGDAGEQAIRQILDEAGKVGELCAGKERREILGTCKMLGQMTDQVADLRARGQGSSPVAMQKAQQVSQGLDVLTAKVENAARKLEAMTNSKQSIAKKIDAAQNWLADPNGGPEGEEQIRGALAEARKIAELCDDPKERDDILRSLGEISALTSKLADLRRQGKGDSPEARALAKQVATALQNLQTKTNRAVANSRPAKAAVHLEGKIEQAQRWIDNPTVDDRGVGQAAIRGLVAEGHRLANVMMGPYRQDLLAKCDRVDQLTAQLADLAARGEGESPQARALASQLQDSLKDLKARMQEAMTQEVSDVFSDTTTPIKLLAVAATAPPDAPNREEVFDERAANFENHSGKLGATAEKAAAVGTANKSTVEGIQASVKTARELTPQVVSAARILLRNPGNQAAYEHFETMKNQWIDNVEKMTGLVDEAIDTKSLLDASEEAIKKDLDKCKVAMANIQPQMLVAGATSIARRANRILLVAKREVENSEDPKFREAVKAASDELSKTISPMVMDAKAVAGNISDPGLQKSFLDSGYRILGAVAKVREAFQPQEPDFPPPPPDLEQLRLTDELAPPKPPLPEGEVPPPRPPPPEEKDEEFPEQKAGEVINQPMMMAARQLHDEARKWSSKGNDIIAAAKRMALLMAEMSRLVRGGSGTKRALIQCAKDIAKASDEVTRLAKEVAKQCTDKRIRTNLLQVCERIPTISTQLKILSTVKATMLGRTNISDEESEQATEMLVHNAQNLMQSVKETVREAEAASIKIRTDAGFTLRWVRKTPWYQ
B4: IpaA 524-633 (A524) (other)
chain: KSKDITKSTTEHRINNKLKVTDANIRNYVTETNADTIDKNHAIYEKAKEVSSALSKVLSKIDDTSAELLTDDISDLKNNNDITAENNNIYKAAKDVTTSLSKVLKNINKD

What was measured:
[1] = biological target: B2; experiment: solid phase (ELISA) assay, HVD1 coated, A483 in solution
[2] = biological target: B3; experiment: solid phase (ELISA) assay, HV coated, A483 in solution
[3] = biological target: B2; experiment: size exclusion chromatography; stoichiometry listed for the complex
talin H1-H4 = biological target: T1, talin H1-H4; experiment: as above
T1 construct: domain: H1-H4; also called TlnH1-H4; T1nH1-H4
T1 sequence (P26039 482-636): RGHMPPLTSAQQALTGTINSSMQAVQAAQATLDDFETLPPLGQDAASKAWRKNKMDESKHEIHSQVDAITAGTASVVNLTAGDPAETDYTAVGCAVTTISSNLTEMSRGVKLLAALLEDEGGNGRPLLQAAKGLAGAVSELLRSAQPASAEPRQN

IpaA 483-633 (A483) = biological target: B1; experiment: solid phase (ELISA) assay, A483 coated, HV in solution
IpaA 524-633 (A524) = biological target: B4; experiment: solid phase (ELISA) assay, A524 coated, HV in solution
[4] = biological target: B3; experiment: solid phase (ELISA) assay, HV coated, A524 in solution

B1
EC50 (read off the curve) [1]: ~0.8 nM | EC50 (read off the curve) [2]: 0.2 to 0.3 nM | stoichiometry [3]: 1 molar ratio of the complex (1:1)

B2
stoichiometry (talin H1-H4): 1 molar ratio of the complex (1:1)

B3
EC50 (read off the curve) (IpaA 483-633 (A483)): ~5 nM | EC50 (read off the curve) (IpaA 524-633 (A524)): ~4 nM

B4
EC50 (read off the curve) [4]: ~0.3 nM
